Reference: patent US20230235011A1

What was measured:
[1] = biological target: VEGF165 (UniProt P15692); experiment: SPR (Biacore T100, 25 C); binder captured on anti-human IgG CM5 chip, VEGF165 as analyte
[2] = biological target: recombinant human CD28 (human) (UniProt P10747); experiment: ELISA; CD28 coated at 100 ng/ml, fusion protein titrated, anti-human IgG Fc-HRP

Sequence of control protein 301-8 (aflibercept) (Fc fusion) (chain): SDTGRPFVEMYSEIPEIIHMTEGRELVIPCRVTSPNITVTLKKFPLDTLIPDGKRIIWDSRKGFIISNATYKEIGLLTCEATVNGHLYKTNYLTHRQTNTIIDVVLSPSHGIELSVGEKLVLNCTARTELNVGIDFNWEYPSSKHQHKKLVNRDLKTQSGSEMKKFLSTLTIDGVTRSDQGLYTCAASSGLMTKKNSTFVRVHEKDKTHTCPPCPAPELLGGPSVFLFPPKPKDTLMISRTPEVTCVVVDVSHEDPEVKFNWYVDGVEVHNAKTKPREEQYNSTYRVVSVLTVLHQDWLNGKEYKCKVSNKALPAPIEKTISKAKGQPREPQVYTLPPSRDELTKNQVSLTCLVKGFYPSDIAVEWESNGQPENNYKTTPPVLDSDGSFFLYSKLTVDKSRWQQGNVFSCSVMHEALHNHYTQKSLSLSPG
Sequence of VEGF165 (P15692 other isoform, or with tags, fused parts or gaps limits assumed): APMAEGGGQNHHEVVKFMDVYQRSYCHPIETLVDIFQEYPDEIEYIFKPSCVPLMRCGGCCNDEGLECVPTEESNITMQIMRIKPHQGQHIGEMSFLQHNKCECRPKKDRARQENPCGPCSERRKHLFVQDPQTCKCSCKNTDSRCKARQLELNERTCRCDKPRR
Sequence of fusion protein BY24.30 (Fc-hCD80, IgG4) (Fc fusion) (chain): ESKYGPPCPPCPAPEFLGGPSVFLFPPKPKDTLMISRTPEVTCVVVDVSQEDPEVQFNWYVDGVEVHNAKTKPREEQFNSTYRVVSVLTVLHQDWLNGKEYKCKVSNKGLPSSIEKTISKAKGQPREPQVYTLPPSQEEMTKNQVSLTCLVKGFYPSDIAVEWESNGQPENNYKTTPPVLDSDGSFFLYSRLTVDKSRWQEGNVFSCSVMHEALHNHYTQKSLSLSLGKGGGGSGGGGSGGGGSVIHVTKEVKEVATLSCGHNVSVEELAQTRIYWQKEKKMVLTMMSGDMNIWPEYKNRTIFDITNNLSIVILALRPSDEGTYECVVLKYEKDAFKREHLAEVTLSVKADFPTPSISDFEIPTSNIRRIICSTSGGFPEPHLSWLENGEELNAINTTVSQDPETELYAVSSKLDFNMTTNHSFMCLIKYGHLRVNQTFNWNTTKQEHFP
Sequence of fusion protein BY24.23 (hCD80-Fc, IgG4) (Fc fusion) (chain): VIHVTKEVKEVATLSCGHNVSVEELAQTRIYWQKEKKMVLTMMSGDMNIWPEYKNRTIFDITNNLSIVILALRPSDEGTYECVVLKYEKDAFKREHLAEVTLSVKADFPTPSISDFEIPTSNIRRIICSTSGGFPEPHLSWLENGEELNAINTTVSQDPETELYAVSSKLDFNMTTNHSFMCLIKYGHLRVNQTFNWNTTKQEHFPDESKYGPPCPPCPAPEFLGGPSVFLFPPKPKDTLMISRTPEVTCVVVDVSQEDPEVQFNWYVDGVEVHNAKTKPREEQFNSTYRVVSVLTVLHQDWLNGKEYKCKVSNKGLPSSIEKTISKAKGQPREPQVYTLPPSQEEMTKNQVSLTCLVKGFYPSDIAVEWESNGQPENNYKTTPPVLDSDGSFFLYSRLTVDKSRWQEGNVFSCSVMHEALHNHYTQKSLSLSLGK

## control protein 301-8 (aflibercept) (Fc fusion)
[1]
  Kd: 7.35 pM
  koff: 4.33e-05 s⁻¹
  kon: 5.89e+06 M⁻¹ s⁻¹

## fusion protein BY24.23 (hCD80-Fc, IgG4) (Fc fusion)
[2]
  EC50: 6.2 µg/mL

## fusion protein BY24.30 (Fc-hCD80, IgG4) (Fc fusion)
[2]
  EC50: 0.97 µg/mL
